Changes are numbered by the printed parent chain. Names may count otherwise.
B1: CE115HA000 S77T one-arm antibody (antibody, human IgG1, kappa, L234A L235A, N297A, name in Kabat numbering)
heavy: QVQLVESGGGVVQPGRSLRLSCAASGFTFSNAWMHWVRQAPGKGLEWVAQIKAKSNNYATYYAESVKGRFTISRDDSKNTLYLQMNSLKTEDTAVYYCRYVHYGAYYGVDAWGQGTTVTVSSASTKGPSVFPLAPSSKSTSGGTAALGCLVKDYFPEPVTVSWNSGALTSGVHTFPAVLQSSGLYSLSSVVTVPSSSLGTQTYICNVNHKPSNTKVDKKVEPKSCDKTHTCPPCPAPEAAGGPSVFLFPPKPKDTLMISRTPEVTCVVVDVSHEDPEVKFNWYVDGVEVHNAKTKPREEQYASTYRVVSVLTVLHQDWLNGKEYKCKVSNKALPAPIEKTISKAKGQPREPQVYTLPPSRCELTKNQVSLSCAVKGFYPSDIAVEWESNGQPENNYKTTPPVLDSDGSFFLVSKLTVDKSRWQQGNVFSCSVMHEALHNHYTQKSLSLSPDYKDDDDK
chain: EPKSSDKTHTCPPCPAPELLGGPSVFLFPPKPKDTLMISRTPEVTCVVVDVSHEDPEVKFNWYVDGVEVHNAKTKPREEQYNSTYRVVSVLTVLHQDWLNGKEYKCKVSNKALPAPIEKTISKAKGQPREPQVCTLPPSRDELTKNQVSLWCLVKGFYPSDIAVEWESNGQPENNYKTTPPVLDSDGSFFLYSKLTVDKSRWQQGNVFSCSVMHEALHNRYTQKSLSLSP
light: DIVMTQSPLSLPVTPGEPASISCRSSQSLVHSNRNTYLHWYQQKPGQAPRLLIYKVSNRFSGVPDRFSGSGSGTDFTLKISRVEAEDVGVYYCGQGTQVPYTFGQGTKLEIKRTVAAPSVFIFPPSDEQLKSGTASVVCLLNNFYPREAKVQWKVDNALQSGNSQESVTEQDSKDSTYSLSSTLTLSKADYEKHKVYACEVTHQGLSSPVTKSFNRGEC
B2: CE115HA000 W33A one-arm antibody (antibody, human IgG1, kappa, L234A L235A, N297A, name in Kabat numbering)
heavy: B1 heavy with W33A, T80S
chain: B1 chain
light: B1 light
B3: CE115HA000 V11L one-arm antibody (antibody, human IgG1, kappa, L234A L235A, N297A, name in Kabat numbering)
heavy: B1 heavy with V11L, T80S
chain: B1 chain
light: B1 light
B4: CE115HA000 Y55G one-arm antibody (antibody, human IgG1, kappa, L234A L235A, N297A, name in Kabat numbering)
heavy: B1 heavy with Y58G, T80S
chain: B1 chain
light: B1 light
B5: CE115HA000 Y58Q one-arm antibody (antibody, human IgG1, kappa, L234A L235A, N297A, name in Kabat numbering)
heavy: B1 heavy with Y61Q, T80S
chain: B1 chain
light: B1 light
B6: CE115HA000 T28S one-arm antibody (antibody, human IgG1, kappa, L234A L235A, N297A, name in Kabat numbering)
heavy: B1 heavy with T28S, T80S
chain: B1 chain
light: B1 light
B7: CE115HA000 V100cE one-arm antibody (antibody, human IgG1, kappa, L234A L235A, N297A, name in Kabat numbering)
heavy: B1 heavy with T80S, V109E
chain: B1 chain
light: B1 light
B8: CE115HA000 W33Y one-arm antibody (antibody, human IgG1, kappa, L234A L235A, N297A, name in Kabat numbering)
heavy: B1 heavy with W33Y, T80S
chain: B1 chain
light: B1 light
B9: CE115HA000 Y58D one-arm antibody (antibody, human IgG1, kappa, L234A L235A, N297A, name in Kabat numbering)
heavy: B1 heavy with Y61D, T80S
chain: B1 chain
light: B1 light
B10: CE115HA000 V95G one-arm antibody (antibody, human IgG1, kappa, L234A L235A, N297A, name in Kabat numbering)
heavy: B1 heavy with T80S, V101G
chain: B1 chain
light: B1 light
B11: CE115HA000 V95A one-arm antibody (antibody, human IgG1, kappa, L234A L235A, N297A, name in Kabat numbering)
heavy: B1 heavy with T80S, V101A
chain: B1 chain
light: B1 light
B12: CE115HA000 T57N one-arm antibody (antibody, human IgG1, kappa, L234A L235A, N297A, name in Kabat numbering)
heavy: B1 heavy with T60N, T80S
chain: B1 chain
light: B1 light
B13: CE115HA000 T57K one-arm antibody (antibody, human IgG1, kappa, L234A L235A, N297A, name in Kabat numbering)
heavy: B1 heavy with T60K, T80S
chain: B1 chain
light: B1 light
B14: CE115HA000 V100cP one-arm antibody (antibody, human IgG1, kappa, L234A L235A, N297A, name in Kabat numbering)
heavy: B1 heavy with T80S, V109P
chain: B1 chain
light: B1 light
B15: CE115HA000 T57A one-arm antibody (antibody, human IgG1, kappa, L234A L235A, N297A, name in Kabat numbering)
heavy: B1 heavy with T60A, T80S
chain: B1 chain
light: B1 light
B16: CE115HA000 T28D one-arm antibody (antibody, human IgG1, kappa, L234A L235A, N297A, name in Kabat numbering)
heavy: B1 heavy with T28D, T80S
chain: B1 chain
light: B1 light
B17: CE115HA000 W33F one-arm antibody (antibody, human IgG1, kappa, L234A L235A, N297A, name in Kabat numbering)
heavy: B1 heavy with W33F, T80S
chain: B1 chain
light: B1 light
B18: CE115HA000 W33H one-arm antibody (antibody, human IgG1, kappa, L234A L235A, N297A, name in Kabat numbering)
heavy: B1 heavy with W33H, T80S
chain: B1 chain
light: B1 light
B19: CE115HA000 Y58L one-arm antibody (antibody, human IgG1, kappa, L234A L235A, N297A, name in Kabat numbering)
heavy: B1 heavy with Y61L, T80S
chain: B1 chain
light: B1 light
B20: CE115HA000 V95S one-arm antibody (antibody, human IgG1, kappa, L234A L235A, N297A, name in Kabat numbering)
heavy: B1 heavy with T80S, V101S
chain: B1 chain
light: B1 light
B21: CE115HA000 Y55D one-arm antibody (antibody, human IgG1, kappa, L234A L235A, N297A, name in Kabat numbering)
heavy: B1 heavy with Y58D, T80S
chain: B1 chain
light: B1 light
B22: CE115HA000 W33L one-arm antibody (antibody, human IgG1, kappa, L234A L235A, N297A, name in Kabat numbering)
heavy: B1 heavy with W33L, T80S
chain: B1 chain
light: B1 light
B23: CE115HA000 V95K one-arm antibody (antibody, human IgG1, kappa, L234A L235A, N297A, name in Kabat numbering)
heavy: B1 heavy with T80S, V101K
chain: B1 chain
light: B1 light
B24: CE115HA000 Y58N one-arm antibody (antibody, human IgG1, kappa, L234A L235A, N297A, name in Kabat numbering)
heavy: B1 heavy with Y61N, T80S
chain: B1 chain
light: B1 light
B25: CE115HA000 Y58K one-arm antibody (antibody, human IgG1, kappa, L234A L235A, N297A, name in Kabat numbering)
heavy: B1 heavy with Y61K, T80S
chain: B1 chain
light: B1 light
B26: CE115HA000 Y58A one-arm antibody (antibody, human IgG1, kappa, L234A L235A, N297A, name in Kabat numbering)
heavy: B1 heavy with Y61A, T80S
chain: B1 chain
light: B1 light
B27: CE115HA000 V100cD one-arm antibody (antibody, human IgG1, kappa, L234A L235A, N297A, name in Kabat numbering)
heavy: B1 heavy with T80S, V109D
chain: B1 chain
light: B1 light
B28: CE115HA000 W33D one-arm antibody (antibody, human IgG1, kappa, L234A L235A, N297A, name in Kabat numbering)
heavy: B1 heavy with W33D, T80S
chain: B1 chain
light: B1 light
B29: CE115HA000 T57I one-arm antibody (antibody, human IgG1, kappa, L234A L235A, N297A, name in Kabat numbering)
heavy: B1 heavy with T60I, T80S
chain: B1 chain
light: B1 light
B30: CE115HA000 V95E one-arm antibody (antibody, human IgG1, kappa, L234A L235A, N297A, name in Kabat numbering)
heavy: B1 heavy with T80S, V101E
chain: B1 chain
light: B1 light
B31: CE115HA000 V95D one-arm antibody (antibody, human IgG1, kappa, L234A L235A, N297A, name in Kabat numbering)
heavy: B1 heavy with T80S, V101D
chain: B1 chain
light: B1 light
B32: CE115HA000 Y55S one-arm antibody (antibody, human IgG1, kappa, L234A L235A, N297A, name in Kabat numbering)
heavy: B1 heavy with Y58S, T80S
chain: B1 chain
light: B1 light

The binders below were run against T1, CD3ε homodimer protein (human, UniProt P07766 23-126, limits assumed, sulfo-tag or biotin label in the ECL assays; amine-coupled to the chip in SPR) (assay: SPR Biacore T200; CD3ε homodimer on CM4 chip;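 further: Single-residue variant antibodies injected as analyte over CD3ε homodimer immobilized by amine coupling, run at 25 °C in HBS-EP+ buffer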).
T1 construct: also called human CD3ε homodimer protein; CD3 (CD3ε)
T1 sequence (P07766 23-126 limits assumed): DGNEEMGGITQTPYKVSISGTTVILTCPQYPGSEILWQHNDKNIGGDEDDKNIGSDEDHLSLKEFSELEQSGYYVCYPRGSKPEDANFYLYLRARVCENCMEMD
For B1, the “ratio of amounts bound Z=Y/X (altered form / CE115HA000)” value was 0.9. With B2 the “ratio of amounts bound Z=Y/X (altered form / CE115HA000)” value was 0.1. For B3, the “ratio of amounts bound Z=Y/X (altered form / CE115HA000)” value was 1. B4 was tested, and the “ratio of amounts bound Z=Y/X (altered form / CE115HA000)” value was 0.65. In the case of B5, the “ratio of amounts bound Z=Y/X (altered form / CE115HA000)” value is reported as 0.19. B6 was tested, and the “ratio of amounts bound Z=Y/X (altered form / CE115HA000)” value was 0.91. For B7, the “ratio of amounts bound Z=Y/X (altered form / CE115HA000)” value was 0.46. In the case of B8, the “ratio of amounts bound Z=Y/X (altered form / CE115HA000)” value is reported as 0.66. With B9 the “ratio of amounts bound Z=Y/X (altered form / CE115HA000)” value was 0.11. B10 was tested, and the “ratio of amounts bound Z=Y/X (altered form / CE115HA000)” value was 0.19. For B11, the “ratio of amounts bound Z=Y/X (altered form / CE115HA000)” value was 0.11. B12 was tested, and the “ratio of amounts bound Z=Y/X (altered form / CE115HA000)” value was 0.97. For B13, the “ratio of amounts bound Z=Y/X (altered form / CE115HA000)” value was 1.32. For B14, the “ratio of amounts bound Z=Y/X (altered form / CE115HA000)” value was 0.2. With B15 the “ratio of amounts bound Z=Y/X (altered form / CE115HA000)” value was 0.98. B16 was tested, and the “ratio of amounts bound Z=Y/X (altered form / CE115HA000)” value was 0.56. With B17 the “ratio of amounts bound Z=Y/X (altered form / CE115HA000)” value was 0.65. For B18, the “ratio of amounts bound Z=Y/X (altered form / CE115HA000)” value was 0.13. In the case of B19, the “ratio of amounts bound Z=Y/X (altered form / CE115HA000)” value is reported as 0.27. In the case of B20, the “ratio of amounts bound Z=Y/X (altered form / CE115HA000)” value is reported as 0.22. For B21, the “ratio of amounts bound Z=Y/X (altered form / CE115HA000)” value was 0.45. In the case of B22, the “ratio of amounts bound Z=Y/X (altered form / CE115HA000)” value is reported as 0.1. B23 was tested, and the “ratio of amounts bound Z=Y/X (altered form / CE115HA000)” value was 0.64. With B24 the “ratio of amounts bound Z=Y/X (altered form / CE115HA000)” value was 0.33. In the case of B25, the “ratio of amounts bound Z=Y/X (altered form / CE115HA000)” value is reported as 0.3. In the case of B26, the “ratio of amounts bound Z=Y/X (altered form / CE115HA000)” value is reported as 0.22. With B27 the “ratio of amounts bound Z=Y/X (altered form / CE115HA000)” value was 0.44. With B28 the “ratio of amounts bound Z=Y/X (altered form / CE115HA000)” value was 0.1. In the case of B29, the “ratio of amounts bound Z=Y/X (altered form / CE115HA000)” value is reported as 0.61. For B30, the “ratio of amounts bound Z=Y/X (altered form / CE115HA000)” value was 0.24. B31 was tested, and the “ratio of amounts bound Z=Y/X (altered form / CE115HA000)” value was 0.24. In the case of B32, the “ratio of amounts bound Z=Y/X (altered form / CE115HA000)” value is reported as 0.26.
